Results as given in PMC3251506.

Biological target: Epstein-Barr virus glycoprotein H / glycoprotein L complex (gH/gL), wild type (Epstein-Barr virus) (UniProt P03231)
Test: CELISA

## Epstein-Barr virus glycoprotein 42 (gp42), wild type, soluble form in medium (from UniProt P03205) (natural protein)
  percent decrease of gH/gL binding to HEK 293 cells by soluble gp42: 50%
